Like-named read-outs stand apart in the source and are kept apart here.
B1: 1035753 (antibody, V domains shown)
VH: EVQLQQSGAELVRPGALVKLSCKASGFNIKDYYMHWVKQRPEQGLEWIGWIDPENGNTIYDPKFLGKASITADTSSNTAYLQLSSLTSEDTAVYYCARWYYYAMDSWGQGTSVTVSS
VL: DIQMTQTTSSLSASLGDRVTISCSASQGISNYLNWYQQKPDGTVKLLIYYTSSLHSGVPSRFSGSGSGTDYSLTISNLEPEDIATYYCQQYSKLPFTFGGGTNLEMK
B2: 1035224 (antibody, V domains shown)
VH: EVQLQQSGAEFVRPGALVKLSCKASGFNIKDDYMHWVKQRPEQGLEWIGWIDPENGNSIYDPKFQGKASITADTSSNTAYLQLSSLTSEDTAVYYCARGEYFGSGSFAYWGQGTLVTVSA
VL: QIVLTQSPAIMSASPGEKVTISCSASSSVSYMYWYQQKPGSSPKPWIYRTSNLASGVPARFSGSGSGTSYSLTISSMEAEDAATYYCQQYHSYPYMYTFGGGTKLEIK

What was measured:
[1] = target: T1, UK variant RBD (R319-F541 with N501Y), C-terminal 6-His (SARS-CoV-2, UniProt P0DTC2 319-541); experiment: lateral flow NC50, RBD-AuNP vs immobilised ACE2
[2] = target: T2, BR P.1 variant RBD (R319-F541 with K417T, E484K, N501Y), C-terminal 6-His (SARS-CoV-2, UniProt P0DTC2 319-541); experiment: lateral flow NC50, RBD-AuNP vs immobilised ACE2
[3] = target: T3, recombinant SARS-CoV-2 spike S1 RBD (R319-F541), C-terminal 6-His (SARS-CoV-2, UniProt P0DTC2 319-541); experiment: lateral flow NC50, RBD-AuNP vs immobilised ACE2
[4] = target: T4, SA variant RBD (R319-F541 with K417N, E484K, N501Y), C-terminal 6-His (SARS-CoV-2, UniProt P0DTC2 319-541); experiment: lateral flow NC50, RBD-AuNP vs immobilised ACE2
[5] = target: T1, UK variant RBD (R319-F541 with N501Y), …; experiment: lateral flow NC50, RBD-AuNP vs immobilised ACE2; remark: listed apart in the source
[6] = target: T2, BR P.1 variant RBD (R319-F541 with …); experiment: lateral flow NC50, RBD-AuNP vs immobilised ACE2; remark: listed apart in the source
[7] = target: K417E RBD (R319-F541 with K417E) (SARS-CoV-2, UniProt P0DTC2 319-541); experiment: lateral flow NC50, RBD-AuNP vs immobilised ACE2
[8] = target: BR P.2 variant RBD (R319-F541 with E484K) (SARS-CoV-2, UniProt P0DTC2 319-541); experiment: lateral flow NC50, RBD-AuNP vs immobilised ACE2
[9] = target: T3, recombinant SARS-CoV-2 spike S1 RBD …; experiment: lateral flow NC50, RBD-AuNP vs immobilised ACE2; remark: listed apart in the source
[10] = target: T4, SA variant RBD (R319-F541 with K417N, …); experiment: lateral flow NC50, RBD-AuNP vs immobilised ACE2; remark: listed apart in the source
[11] = target: T478K RBD (R319-F541 with T478K) (SARS-CoV-2, UniProt P0DTC2 319-541); experiment: lateral flow NC50, RBD-AuNP vs immobilised ACE2
[12] = target: T3, recombinant SARS-CoV-2 spike S1 RBD …; experiment: flow cytometry, blocking of binding to hACE-2 cells
[13] = target: T1, UK variant RBD (R319-F541 with N501Y), …; experiment: sandwich dipstick, detector Ab5-AuNP
[14] = target: T2, BR P.1 variant RBD (R319-F541 with …); experiment: sandwich dipstick, detector Ab5-AuNP
[15] = target: T3, recombinant SARS-CoV-2 spike S1 RBD …; experiment: sandwich dipstick, detector Ab5-AuNP
[16] = target: T4, SA variant RBD (R319-F541 with K417N, …); experiment: sandwich dipstick, detector Ab5-AuNP
[17] = target: T1, UK variant RBD (R319-F541 with N501Y), …; experiment: sandwich dipstick, detector Ab4-AuNP
[18] = target: T2, BR P.1 variant RBD (R319-F541 with …); experiment: sandwich dipstick, detector Ab4-AuNP
[19] = target: T3, recombinant SARS-CoV-2 spike S1 RBD …; experiment: sandwich dipstick, detector Ab4-AuNP
[20] = target: T4, SA variant RBD (R319-F541 with K417N, …); experiment: sandwich dipstick, detector Ab4-AuNP
[21] = target: T5, IN v2 variant RBD (R319-F541 with L452R, T478K) (SARS-CoV-2, UniProt P0DTC2 319-541); experiment: lateral flow assay: blocking of RBD-AuNP capture by ACE2
[22] = target: T6, L452R RBD (R319-F541 with L452R) (SARS-CoV-2, UniProt P0DTC2 319-541); experiment: as above
[23] = target: T7, IN v1 variant RBD (R319-F541 with L452R, E484Q) (SARS-CoV-2, UniProt P0DTC2 319-541); experiment: as above
[24] = target: T3, recombinant SARS-CoV-2 spike S1 RBD …; experiment: flow cytometry, blocking of binding to hACE-2 cells; remark: listed apart in the source
[25] = target: T5, IN v2 variant RBD (R319-F541 with …); experiment: as above
[26] = target: rSARS2 RBD aa319-541, N439K, C-His (SARS-CoV-2, UniProt P0DTC2 319-541); experiment: as above
[27] = target: rSARS2-B.1.617.2 S aa16-1211 10+4x aa mut., C-His (SARS-CoV-2, UniProt P0DTC2 16-1211); experiment: as above
[28] = target: T2, BR P.1 variant RBD (R319-F541 with …); experiment: as above
[29] = target: rSARS2-B.1.1.7 S aa16-1211 4x aa mut., C-His (SARS-CoV-2, UniProt P0DTC2 16-1211); experiment: as above
[30] = target: rSARS2-B.1.1.7 S aa16-1211 2x aa mut., C-His (SARS-CoV-2, UniProt P0DTC2 16-1211); experiment: as above
[31] = target: T6, L452R RBD (R319-F541 with L452R); experiment: dipstick, adsorbed RBD spots, Ab 10 µg/mL, GAM-AuNP
[32] = target: T5, IN v2 variant RBD (R319-F541 with …); experiment: lateral flow assay: blocking of RBD-AuNP capture by ACE2; remark: listed apart in the source
[33] = target: T7, IN v1 variant RBD (R319-F541 with …); experiment: as above; remark: listed apart in the source

Binder | IC50 [1] | IC50 [2] | IC50 [3] | IC50 [4] | IC50 [5] | IC50 [6] | IC50 [7] | IC50 [8] | IC50 [9] | IC50 [10] | IC50 [11] | percent blocking [12] | detection sensitivity [13] | detection sensitivity [14] | detection sensitivity [15] | detection sensitivity [16] | detection sensitivity [17] | detection sensitivity [18] | detection sensitivity [19] | detection sensitivity [20] | other results
B1 | 1.51 mg/L | 2.21 mg/L | 1.66 mg/L | 3.19 mg/L | 1.51 mg/L | 2.21 mg/L | 0.89 mg/L | 3.22 mg/L | 1.66 mg/L | 3.19 mg/L | 2.29 mg/L | 94.7% | 0.001 µg/mL | 0.001 µg/mL | 0.001 µg/mL | 0.001 µg/mL | 0.01 µg/mL | 0.01 µg/mL | 0.01 µg/mL | 0.01 µg/mL | binding result [21]: no binding (tested: 10 µg/mL); binding result [22]: no binding (tested: 10 µg/mL); binding result [23]: no binding (tested: 10 µg/mL); percent blocking [24]: 94.7%; percent blocking [25]: 0%; percent blocking [26]: 96.2%; percent blocking [27]: 0%; percent blocking [28]: 90.4%; percent blocking [29]: 81.2%; percent blocking [30]: 93.6%
B2 | 2.72 mg/L | 1.11 mg/L | 0.66 mg/L | 1.14 mg/L | 2.72 mg/L | 1.11 mg/L | 0.38 mg/L | 0.54 mg/L | 0.66 mg/L | 1.14 mg/L | 0.76 mg/L | 99.1% | 0.001 µg/mL | 0.001 µg/mL | 0.001 µg/mL | 0.001 µg/mL | 0.01 µg/mL | 0.01 µg/mL | 0.01 µg/mL | 0.01 µg/mL | binding result [31]: no binding (tested: 10 µg/mL); binding result [32]: no binding (tested: 10 µg/mL); binding result [33]: no binding (tested: 10 µg/mL); percent blocking [24]: 99.1%; percent blocking [25]: 0%; percent blocking [26]: 96.1%; percent blocking [27]: 0%; percent blocking [28]: 88%; percent blocking [29]: 74.1%; percent blocking [30]: 33.9%
